Results as given in US11499162B2, “Plants having increased tolerance to herbicides” (BASF SE, priority 2016, dated 2022).

Assay type: biochemical
Conditions: pH 7.2
Summary of the method: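 TriA variants, N-His-tagged, were expressed in E. coli BL21(DE3) Gold with groEL/groES chaperones and purified by Ni-IDA affinity. Enzyme in 25 mM sodium phosphate pH 7.2 was incubated with azine substrates at 1 nM to 10 nM, 30° C. Products were identified by UPLC-HR-MS.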

| Molecule | Degradation in % of 6-cyclopentyl-N4-(2,3,4,5,6-pentafluorophenyl)-1,3,5-triazine-2,4-diamine [%] | Degradation in % of Melamine [%] |
| --- | --- | --- |
| M155A: mutated TriA variant of SEQ ID NO: 2 (protein, Pseudomonas) MQTLSIQHGTLVTMDQYRRVLGDSWVHVQDGRIVALGVHAESVPPPADRVIDARGKVVLPGFINAHTHVNQILLRGGPSHGRQLYDWLFNVLYPGQKAMRPEDVAVAVRLYCAEAVRSGITTINDNADSAIYPGNIEAAMAVYGEVGVRVVYARAFFDRMDGRIQGYVDALKARSPQVELCSIMEETAVAKDRITALSDQYHGTAGGRISVWPAPAITPAVTVEGMRWAQAFARDRAVMWTLHMAESDHDERLHWMSPAEYMECYGLLDERLQVAHCVYFDRKDVRLLHRHNVKVASQVVSNAYLGSGVAPVPEMVERGMAVGIGTDDGNCNDSVNMIGDMKFMAHIHRAVHRDADVLTPEKILEMATIDGARSLGMDHEIGSIETGKRADLILLDLRHPQTTPHHHLAATIVFQAYGNEVDTVLIDGNVVMENRRLSFLPPERELAFLEEAQSRATAILQRANMVANPAWRSL | 4 | 0 |
| M155E: mutated TriA variant of SEQ ID NO: 2 (protein, Pseudomonas) MQTLSIQHGTLVTMDQYRRVLGDSWVHVQDGRIVALGVHAESVPPPADRVIDARGKVVLPGFINAHTHVNQILLRGGPSHGRQLYDWLFNVLYPGQKAMRPEDVAVAVRLYCAEAVRSGITTINDNADSAIYPGNIEAAMAVYGEVGVRVVYAREFFDRMDGRIQGYVDALKARSPQVELCSIMEETAVAKDRITALSDQYHGTAGGRISVWPAPAITPAVTVEGMRWAQAFARDRAVMWTLHMAESDHDERLHWMSPAEYMECYGLLDERLQVAHCVYFDRKDVRLLHRHNVKVASQVVSNAYLGSGVAPVPEMVERGMAVGIGTDDGNCNDSVNMIGDMKFMAHIHRAVHRDADVLTPEKILEMATIDGARSLGMDHEIGSIETGKRADLILLDLRHPQTTPHHHLAATIVFQAYGNEVDTVLIDGNVVMENRRLSFLPPERELAFLEEAQSRATAILQRANMVANPAWRSL | 0 | 0 |
| A216S: mutated TriA variant of SEQ ID NO: 2 (protein, Pseudomonas) MQTLSIQHGTLVTMDQYRRVLGDSWVHVQDGRIVALGVHAESVPPPADRVIDARGKVVLPGFINAHTHVNQILLRGGPSHGRQLYDWLFNVLYPGQKAMRPEDVAVAVRLYCAEAVRSGITTINDNADSAIYPGNIEAAMAVYGEVGVRVVYARMFFDRMDGRIQGYVDALKARSPQVELCSIMEETAVAKDRITALSDQYHGTAGGRISVWPAPSITPAVTVEGMRWAQAFARDRAVMWTLHMAESDHDERLHWMSPAEYMECYGLLDERLQVAHCVYFDRKDVRLLHRHNVKVASQVVSNAYLGSGVAPVPEMVERGMAVGIGTDDGNCNDSVNMIGDMKFMAHIHRAVHRDADVLTPEKILEMATIDGARSLGMDHEIGSIETGKRADLILLDLRHPQTTPHHHLAATIVFQAYGNEVDTVLIDGNVVMENRRLSFLPPERELAFLEEAQSRATAILQRANMVANPAWRSL | 1 | 45 |
| L841L88AY167I: mutated TriA variant of SEQ ID NO: 2 (protein, Pseudomonas) MQTLSIQHGTLVTMDQYRRVLGDSWVHVQDGRIVALGVHAESVPPPADRVIDARGKVVLPGFINAHTHVNQILLRGGPSHGRQIYDWAFNVLYPGQKAMRPEDVAVAVRLYCAEAVRSGITTINDNADSAIYPGNIEAAMAVYGEVGVRVVYARMFFDRMDGRIQGIVDALKARSPQVELCSIMEETAVAKDRITALSDQYHGTAGGRISVWPAPAITPAVTVEGMRWAQAFARDRAVMWTLHMAESDHDERLHWMSPAEYMECYGLLDERLQVAHCVYFDRKDVRLLHRHNVKVASQVVSNAYLGSGVAPVPEMVERGMAVGIGTDDGNCNDSVNMIGDMKFMAHIHRAVHRDADVLTPEKILEMATIDGARSLGMDHEIGSIETGKRADLILLDLRHPQTTPHHHLAATIVFQAYGNEVDTVLIDGNVVMENRRLSFLPPERELAFLEEAQSRATAILQRANMVANPAWRSL | 4 | 9 |
| F157M: mutated TriA variant of SEQ ID NO: 2 (protein, Pseudomonas) MQTLSIQHGTLVTMDQYRRVLGDSWVHVQDGRIVALGVHAESVPPPADRVIDARGKVVLPGFINAHTHVNQILLRGGPSHGRQLYDWLFNVLYPGQKAMRPEDVAVAVRLYCAEAVRSGITTINDNADSAIYPGNIEAAMAVYGEVGVRVVYARMFMDRMDGRIQGYVDALKARSPQVELCSIMEETAVAKDRITALSDQYHGTAGGRISVWPAPAITPAVTVEGMRWAQAFARDRAVMWTLHMAESDHDERLHWMSPAEYMECYGLLDERLQVAHCVYFDRKDVRLLHRHNVKVASQVVSNAYLGSGVAPVPEMVERGMAVGIGTDDGNCNDSVNMIGDMKFMAHIHRAVHRDADVLTPEKILEMATIDGARSLGMDHEIGSIETGKRADLILLDLRHPQTTPHHHLAATIVFQAYGNEVDTVLIDGNVVMENRRLSFLPPERELAFLEEAQSRATAILQRANMVANPAWRSL | 0 | 17 |
| N70T: mutated TriA variant of SEQ ID NO: 2 (protein, Pseudomonas) MQTLSIQHGTLVTMDQYRRVLGDSWVHVQDGRIVALGVHAESVPPPADRVIDARGKVVLPGFINAHTHVTQILLRGGPSHGRQLYDWLFNVLYPGQKAMRPEDVAVAVRLYCAEAVRSGITTINDNADSAIYPGNIEAAMAVYGEVGVRVVYARMFFDRMDGRIQGYVDALKARSPQVELCSIMEETAVAKDRITALSDQYHGTAGGRISVWPAPAITPAVTVEGMRWAQAFARDRAVMWTLHMAESDHDERLHWMSPAEYMECYGLLDERLQVAHCVYFDRKDVRLLHRHNVKVASQVVSNAYLGSGVAPVPEMVERGMAVGIGTDDGNCNDSVNMIGDMKFMAHIHRAVHRDADVLTPEKILEMATIDGARSLGMDHEIGSIETGKRADLILLDLRHPQTTPHHHLAATIVFQAYGNEVDTVLIDGNVVMENRRLSFLPPERELAFLEEAQSRATAILQRANMVANPAWRSL | 0 | 0 |
| F157A: mutated TriA variant of SEQ ID NO: 2 (protein, Pseudomonas) MQTLSIQHGTLVTMDQYRRVLGDSWVHVQDGRIVALGVHAESVPPPADRVIDARGKVVLPGFINAHTHVNQILLRGGPSHGRQLYDWLFNVLYPGQKAMRPEDVAVAVRLYCAEAVRSGITTINDNADSAIYPGNIEAAMAVYGEVGVRVVYARMFADRMDGRIQGYVDALKARSPQVELCSIMEETAVAKDRITALSDQYHGTAGGRISVWPAPAITPAVTVEGMRWAQAFARDRAVMWTLHMAESDHDERLHWMSPAEYMECYGLLDERLQVAHCVYFDRKDVRLLHRHNVKVASQVVSNAYLGSGVAPVPEMVERGMAVGIGTDDGNCNDSVNMIGDMKFMAHIHRAVHRDADVLTPEKILEMATIDGARSLGMDHEIGSIETGKRADLILLDLRHPQTTPHHHLAATIVFQAYGNEVDTVLIDGNVVMENRRLSFLPPERELAFLEEAQSRATAILQRANMVANPAWRSL | 0 | 19 |
| A216G: mutated TriA variant of SEQ ID NO: 2 (protein, Pseudomonas) MQTLSIQHGTLVTMDQYRRVLGDSWVHVQDGRIVALGVHAESVPPPADRVIDARGKVVLPGFINAHTHVNQILLRGGPSHGRQLYDWLFNVLYPGQKAMRPEDVAVAVRLYCAEAVRSGITTINDNADSAIYPGNIEAAMAVYGEVGVRVVYARMFFDRMDGRIQGYVDALKARSPQVELCSIMEETAVAKDRITALSDQYHGTAGGRISVWPAPGITPAVTVEGMRWAQAFARDRAVMWTLHMAESDHDERLHWMSPAEYMECYGLLDERLQVAHCVYFDRKDVRLLHRHNVKVASQVVSNAYLGSGVAPVPEMVERGMAVGIGTDDGNCNDSVNMIGDMKFMAHIHRAVHRDADVLTPEKILEMATIDGARSLGMDHEIGSIETGKRADLILLDLRHPQTTPHHHLAATIVFQAYGNEVDTVLIDGNVVMENRRLSFLPPERELAFLEEAQSRATAILQRANMVANPAWRSL | 0 | 64 |
| L84VL88AY167I: mutated TriA variant of SEQ ID NO: 2 (protein, Pseudomonas) MQTLSIQHGTLVTMDQYRRVLGDSWVHVQDGRIVALGVHAESVPPPADRVIDARGKVVLPGFINAHTHVNQILLRGGPSHGRQVYDWAFNVLYPGQKAMRPEDVAVAVRLYCAEAVRSGITTINDNADSAIYPGNIEAAMAVYGEVGVRVVYARMFFDRMDGRIQGIVDALKARSPQVELCSIMEETAVAKDRITALSDQYHGTAGGRISVWPAPAITPAVTVEGMRWAQAFARDRAVMWTLHMAESDHDERLHWMSPAEYMECYGLLDERLQVAHCVYFDRKDVRLLHRHNVKVASQVVSNAYLGSGVAPVPEMVERGMAVGIGTDDGNCNDSVNMIGDMKFMAHIHRAVHRDADVLTPEKILEMATIDGARSLGMDHEIGSIETGKRADLILLDLRHPQTTPHHHLAATIVFQAYGNEVDTVLIDGNVVMENRRLSFLPPERELAFLEEAQSRATAILQRANMVANPAWRSL | 3 | 7 |
| L88AY167I: mutated TriA variant of SEQ ID NO: 2 (protein, Pseudomonas) MQTLSIQHGTLVTMDQYRRVLGDSWVHVQDGRIVALGVHAESVPPPADRVIDARGKVVLPGFINAHTHVNQILLRGGPSHGRQLYDWAFNVLYPGQKAMRPEDVAVAVRLYCAEAVRSGITTINDNADSAIYPGNIEAAMAVYGEVGVRVVYARMFFDRMDGRIQGIVDALKARSPQVELCSIMEETAVAKDRITALSDQYHGTAGGRISVWPAPAITPAVTVEGMRWAQAFARDRAVMWTLHMAESDHDERLHWMSPAEYMECYGLLDERLQVAHCVYFDRKDVRLLHRHNVKVASQVVSNAYLGSGVAPVPEMVERGMAVGIGTDDGNCNDSVNMIGDMKFMAHIHRAVHRDADVLTPEKILEMATIDGARSLGMDHEIGSIETGKRADLILLDLRHPQTTPHHHLAATIVFQAYGNEVDTVLIDGNVVMENRRLSFLPPERELAFLEEAQSRATAILQRANMVANPAWRSL | 0 | 2 |
